Results published in paper PMC9929602.

Molecular target: tetraspanin CD81 (human (endogenous in THP-1)) (UniProt P60033)
Chain of UniProt P60033 (P60033 whole entry): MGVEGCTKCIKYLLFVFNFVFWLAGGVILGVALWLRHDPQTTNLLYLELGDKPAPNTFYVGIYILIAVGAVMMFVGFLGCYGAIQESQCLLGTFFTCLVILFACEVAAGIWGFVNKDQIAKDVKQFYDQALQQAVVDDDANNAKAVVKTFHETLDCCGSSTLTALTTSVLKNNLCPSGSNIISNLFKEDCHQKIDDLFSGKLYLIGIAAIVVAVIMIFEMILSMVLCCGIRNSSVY

Q: Which reduction of infectivity of Mab WT (CFU) in THP-1 cells pre-incubated with 2 μg soluble AhpC-His, against untreated cells or cells pre-incubated with Hsp16.7-His does the source give for “AhpC-6×His (recombinant M. abscessus AhpC) (enzyme)” here?
A: 30%
